Biological target: T1, DREB2A full-length fused to a YFP fragment (BiFC construct in pBI221) (Arabidopsis thaliana, UniProt O82132 1-335)
T1 construct: domain: full-length; Transiently expressed in Arabidopsis protoplasts, MG132 added to stabilise DREB2A; not shown: N-terminal or C-terminal half of YFP
Assay: BiFC (split YFP), transient expression in Arabidopsis protoplasts
Method: Transient expression analysis using protoplasts from Arabidopsis thaliana mesophyll cells was conducted in accordance with the method of Yoo et al. [Yoo et al., Nat. Protoc., Vol. 2, pp. 1565-1572 ([…])]. To offer a brief explanation, the gene was introduced into the protoplast; after standing for 14 hours, MG132, a proteasome inhibitor, was added to make a final concentration of 50 μM to stabilize the DREB2A in the plant. After standing for another 4 hours, the YFP fluorescence was examined.
Specifically, two plasmids containing DREB2A and Arabidopsis thaliana NF-YC10 were produced by amplifying full-length cDNA of DREB2A and full-length cDNA of Arabidopsis thaliana NF-YC10 by PCR and attaching each to either pBI221 [Qin et al., Plant Cell, Vol. 20, pp. 1693-1707 (2008)] which is an expression vector containing cDNA encoding the N terminal side or C terminal side of YFP, and a transient expression analysis study of both plasmids was conducted. Furthermore, one transferred from Feng Qin Ph.D. (Japan International Research Center for Agricultural Sciences, Japan) was used as the DREB2A full-length cDNA-ligated pBI221 plasmid. Full-length cDNA of Arabidopsis thaliana NF-YC10 was produced by amplification by PCR using the following primer pair and introduction at the XbaI/ClaI site of the above expression vector.

T1 sequence (O82132 whole entry, the tested form may be a part): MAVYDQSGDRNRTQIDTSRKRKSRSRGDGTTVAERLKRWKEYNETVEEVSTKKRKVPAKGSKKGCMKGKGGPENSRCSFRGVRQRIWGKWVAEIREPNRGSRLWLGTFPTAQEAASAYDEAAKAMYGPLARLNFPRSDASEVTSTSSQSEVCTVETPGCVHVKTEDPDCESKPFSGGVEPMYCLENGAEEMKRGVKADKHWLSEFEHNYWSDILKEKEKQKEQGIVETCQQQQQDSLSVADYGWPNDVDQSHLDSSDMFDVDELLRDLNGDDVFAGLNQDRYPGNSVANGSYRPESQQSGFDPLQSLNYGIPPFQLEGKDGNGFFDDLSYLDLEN

B1: Arabidopsis thaliana NF-YC10 full-length fused to a YFP fragment (BiFC construct in pBI221) (other)
chain: MVSSKKPKEKKARSDVVVNKASGRSKRSSGSRTKKTSNKVNIVKKKPEIYEISESSSSDSVEEAIRGDEAKKSNGVVSKRGNGKSVGIPTKTSKNREEDDGGAEDAKIKFPMNRIRRIMRSDNSAPQIMQDAVFLVNKATEMFIERFSEEAYDSSVKDKKKFIHYKHLSSVVSNDQRYEFLADSVPEKLKAEAALEEWERGMTDAG
notes: Transiently expressed in Arabidopsis thaliana mesophyll protoplasts; not shown: N-terminal or C-terminal half of YFP
  binding result: binds

From patent publication US20150128304A1 (UNIVERSITY OF TOKYO, published 2015)
